The text below walks through data of the DeepSol protein solubility set.

A short description of the data set: soluble on expression in E. coli; label from the status in PepcDB or PDB records.
As for “MRNIYDLANELERGIRALPEYKNLVEKKEAIATDAEASALFKEFTDFQEDFYAKMQAGTMPTAEEQAAVQELGQKVEANALLKEYLTAQQSLSVYLNDIERIIFKPLQELNN”, the “soluble on expression in E. coli” value is listed as “not soluble”. For “MGSDKIHHHHHHMKILFGPVSSRRFGRSLGIDLSPSKKQCNFDCVYCELDPKKAQEKQDEIISIDKIISEVKAMLEKNVEFDFLTLTANGEPSLYPYLNELILSLRSIAKDKKLLILSNGTAVLDEDKFNALLKLDVVKFSLDSAVAKTFYRIDRALKNIDLEKMIEKMADFRARFNGDLIMEILVVKDLNDNEEEFEALNQALKKIMPLRVDLSTIDRPPAYAVKKVSEEKLLELSKLIDSTPVLLAKRHYEGEKLSFNEEELLKMLHLRSQSEIDIEVKFDEQSKTLLNQLIKEKKVKILDLAGVKFYKV” the value was “not soluble”; for “SNTQAERSIIGMIDMFHKYTRRDDKIDKPSLLTMMKENFPNFLSACDKKGTNYLADVFEKKDKNEDKKIDFSEFLSLLGDIATDYHKQSHGAAPCSGGSQ”, “soluble”; for “MEDFWEDWDLAFEDVFPKSLKEALEGIKEIPTYGERGASRFMYNLLKLEKEKRKEIIEKVLEAVEVLRPCRECFLITDREVCPICSDEKRSKKFICVVEESQDAYAIEKLERYKGVYHVLQGHIAPLEGISAEDLTIDALMERIKKYQPKEVILATNPNVEGEATANYIAGLIRRKFPAVKITRTAYGFQFGSLIEFVDEYSLEKSMENRK”, “soluble”.

In the case of “MSDTTELVDLAVIFPDLEIELKYACADNITGKAIYQQARCLLHKDAITALAKSISIAQLSGLQLVIYDAYRPQQAQAMLWQACPDPQYVVDVTVGSNHSRGTAIDLTLRDEHGNILDMGAGFDEMHERSHAYHPSVPPAAQRNRLLLNAIMTGGGFVGISSEWWHFELPQAASYPLLADQFSCFISPGTQHVS”, the “soluble on expression in E. coli” value is reported as “not soluble”.

For “QKNPDSYNGAVRENYTWSQDYTDLEVRVPVPKHVVKGKQVSVALSSSSIRVAMLEENGERVLMEGKLTHKINTESSLWSLEPGKCVLVNLSKVGEYWWNAILEGEEPIDID”, the “soluble on expression in E. coli” value is reported as “soluble”. “NIGSGTDEKTATARAKVVDWCNELVIASPSTKCELLAKVQETVLGSCAELAEEFLESVLSLAHDSNMEVRKQVVAFVEQVCKVKVELLPHVINVVSMLLRDNSAQVIKRVIQACGSIYKNGLQYLCSLMEPGDSAEQAWNILSLIKAQILDMIDNENDGIRTNAIKFLEGVVVLQSFADEDSLKRDGDFSLADVPDHCTLFRREKLQEEGNNILDILLQFHGTTHISSVNLIACTSSLCTIAKMRPIFMGAVVEAFK”: the “soluble on expression in E. coli” value is “soluble”.

For the sequence “MSLQKTSFALLVAALQLASASALAATPPVADAIWFNGPIITIDDQHPKAQAVAVKDGKILAVGDRQHVLKNKGPATQMLDLKGATLLPGFVDPHGHVSMVGFQAASANLLPPPDGTNNSIPGLQETLRRFEQQSPIPKQFGVLFGFGYDDSQLQEQRHPTKADLDAVTRDLPIAIVHQSSHLGVLNSKALELAGIDASTPNPEGGVIRRVDGSQEPNGVLEENAFFNALIRIFPKLTADQAVDMLSAGQKLYVSYGYTTIQDGRSSPDQVKTAIKAAGDGKLLADIVSYPDILTPGVKQLMVAPWYHPSNQPVVYNQHFRIGGVKLTLDGSPQGKTAWLSQPYFKPPQGQDASYAGYGVVKDADALAIYKEALANRWQILSHTNGDRAIDQLLGSMRAAEQAYPGVDVRPVMIHGQTLRKDQVAELKQLKIFPSLFPMHTYYWGDWHRQSVLGPERAENISPTQWVLQAGMKFTTHHDAPVALPDSMRVLAATVNRTTRSGYVLGPDQRVTPLQALKAMTLWSAYQHFEEDRKGSITPGKLADFAVLSANPLTVKPETLSEIQVLKTVKEGRVIYERPAKVASEGHHHHHH”, the “soluble on expression in E. coli” value is on record as “soluble”. In the case of “MKQVKIMFLMTMFLGIGLLFFSENAEAAITSNEIGTHDGYDYEFWKDSGGSGSMTLNSGGTFSAQWSNVNNILFRKGKKFDETQTHQQIGNMSINYGATYNPNGNSYLTVYGWTVDPLVEFYIVDSWGTWRPPGGTPKGTINVDGGTYQIYETTRYNQPSIKGTATFQQYWSVRTSKRTSGTISVSEHFRAWESLGMNMGNMYEVALTVEGYQSSGSANVYSNTLTIGGQSGGEQATRVEAESMTKGGPYTSNITSPFNGVALYANGDNVSFNHSFTKANSSFSLRGASNNSNMARVDLRIGGQNRGTFYFGDQYPAVYTINNINHGIGNQLVELIVTADDGTWDAYLDYLEIR”, the “soluble on expression in E. coli” value is recorded as “soluble”. Take “MGSDKIHHHHHHMLTSVFGISIKYEAWNHQDSLPVYIAGSYDFHTAYIGNRRCIMLAPTEELATLPALKKQIVKIQQIDNVPVVFELTTVSNYRRKSLIENNIPFITDKQVFLPFIGTMLSDEKEPQKLTGKFVYSTQQLFLFYLYSKKKRLYTSEAGKVLPFTAMTLTRAVKQLETTDLFLVAKDGVNKFIESKYKRDELFEKAKVYLTTPVRKTGYIDKTQVTENMVFAGETALSEKTMLNPSRVVTYAISEKDYDKSLLTDELIDPDKQVRLELWAYNPKQFSEDNSADDISLVLSFKDTNDERIEEAVDELQERRLHE”: the “soluble on expression in E. coli” value is on record as “not soluble”.

On to “MAIVDPIVTGLNAGWLHTDASQLQANQQFEADVVIVGTGAGGGVAAEILTQAGLSVIMIEAGPLKSSSDFNMEERVAYPNLYQQAAAMKTADKAIGIFQGRAVGGSTTINWTTSIRTPKEALAFWAQHKSVAGLDPEALAPWFDQMEQRLNIHEWNYEPNRNNGALKQGCINLGWDYTVIKRNVAGCWNTGYCGMGCPVNAKQSMLVTTIPSALEKGAQLISRAKVVKIEHHNGQVFALKAQALDVNLRPTAVELLFKAKHYILSAGAIHTPTLMMRSEVPDPHQLLGKRTFLHPTVLSGGVFADTINAHSGAPQSIYSDEFVWKNGADGELGYKLEVPPVHPILIASKTIGYGVSHAELMAQFNQLQVTIALIRDGYHPDSQGGQVHLTPTGFSLDYPLTDAFWRAVRRAYASMAELQFSAGALKVLPISDGMPYLSSWKEAKESIAQMDLAPLKTVVASAHVMGGCPLGEDEKLSMVNSYGQSHYLNNLSVMDGSIFPTSLGANPQLSIYGITARNATALAQKLKDGREPQLEHHHHHH”, for which the “soluble on expression in E. coli” value is “not soluble”. On to “MSLNDLLTRRAVVAGMGVLGLGLLAGCSPARGLEFKYGKNMSNEILGRKFSLKDPQGNVRTLSSFYGSMPMVFFGFTQCPAVCPTTLARAAQIRKLLRGRDRDLFQVVFITLDPERDTPEVLDAYVKAFDPTFTALTGTPEEIAAVAKEFKVFYEKVPAGDTYTISHSSTSYVYDTRGTLRLSLGHSLNAKECAEDLVTLMEIEGHHHHHH”, for which the “soluble on expression in E. coli” value is recorded as “soluble”. Take “MSFFHANQREALNQSLSELQGQINVSFEFFPPRTSEMEDTLWSSIDRLSTLKPKFVSVTYGANSGERDRTHSIIKGIKERTGLEAAPHLTCIDASPTQLRDIAIDYWNSGIRHIVALRGDLPPNSGKPEMYACDLVGLLKDVGDFDISVAAYPEIHPEAKSAQADLINLKRKIDAGANRAITQFFFDVESYLRFRDRCVATGIDVEIVPGILPVSNFKQLQRFATMTNVRVPNWMTSIFDGLDNDPETRKMVGASVAMDMVKILSREGVKDFHFYTLNRAELSYAICHTLGVRP”: the “soluble on expression in E. coli” value was “not soluble”. “MDLSQGPVRAAQAAPQVLCTASVHHDHPHAIETLVEALGPVELELILLMASPQTDIPALLARAAAVLPGTRIVGCTTAGEISAAGYTEGEIVAIGMPRAYFKAQTMLIDDLTDYDAQAIIDRMIQTRNDLAAARPEWGHEFNFLLIDGLSTLEDRLVSDLAMGLGPVPLFGGSAGDGERFGTTFVFHEGRAHGNAAVLMQVRTRCPIQVFKTDHLIPTEKRMVVTGADPDRRLVHEINAEPAAREYARVLGKDPEQLTTFTFAAHPVVVRIGGQHHVRSIQRVAENGDLVFFSAIDEGLVLTLAEARDMREHLREELGRLAADGPPAVILGCDCLLRRMEAQQKQVLGALSDILRENRVVGFSTYGEQFNSMHVNQTLTGVAIYPPDDM”: the “soluble on expression in E. coli” value is on record as “soluble”. As to “MTITPNKLTLKIGRAEGRPGDTVEIPVNLYGVPQKGIASGDFVVSYDPNVLEIIEIEPGELIVDPNPTKSFDTAVYPDRKMIVFLFAEDSGTGAYAITEDGVFATIVAKVKEGAPEGFSAIEISEFGAFADNDLVEVETDLINGGVLVTNKPVIEGYKVSGYILPDFSFDATVAPLVKAGFKVEIVGTELYAVTDANGYFEITGVPANASGYTLKISRATYLDRVIANVVVTGDTSVSTSQAPIMMWVGDIVKDNSINLLDVAEVIRCFNATKGSANYVEELDINRNGAINMQDIMIVHKHFGATSSDYDAQLEHHHHHHMRGSHHHHHHTDLRADKASSIELKFDRNKGEVGDILIGTVRINNIKNFAGFQVNIVYDPKVLMAVDPETGKEFTSSTFPPGRTVLKNNAYGPIQIADNDPEKGILNFALAYSYIAGYKETGVAEESGIIAKIGFKILQKKSTAVKFQDTLSMPGAISGTQLFDWDGEVITGYEVIQPDVLSLGDEPF”, the “soluble on expression in E. coli” value is given as “soluble”. Regarding “MSLSAPRITRVETAAIRAVGPSVLVRVWAGDEHGLGECYPSAPAAGIHHIVMNMEEQLLGEDPRDVERLYEKMRRWNIFTGGQAGAVITALSGIETALWDLAGKLQGVPVYRLLGGAFRRRVRLYADCNAGTVDAAAHHIEGGLFEEGSNEEYIAVAREAVERGFDAIKLDVDDITGPLHRDFWNGAISPREHEAMVARVAAVREAVGPEVEVAIDMHGRFDIPSSIRFARAMEPFGLLWLEEPTPPENLDALAEVRRSTSTPICAGENVYTRFDFRELFAKRAVDYVMPDVAKCGGLAEAKRIANLAELDYIPFAPHNVSSPVGTVAAAHVCAAVSNFAVLEWHAIDMPHWEDFVRYPGGPVIREGHIELTEEPGLGLELDEEAAFEHRHEKGGVPFFGRTEGHHHHHH”, the “soluble on expression in E. coli” value is “soluble”.

“GPLGSMSVAGLKKQFHKATQKVSEKVGGAEGTKLDDDFKEMERKVDVTSRAVMEIMTKTIEYLAHLSSLLQAEALLAEAMLKFGRELGDDCNFGPALGEVGEAMRELSEVKDSLDIEVKQNFIDPLQNLHDKDLREIQHHLKKLEGRRLDFDYKKKRQGKIPDEELRQALEKFDESKEIAESSMFNLLEMDIEQVSQLSALVQAQLEYHKQAVQILQQVTVRLEERIRQA”: the “soluble on expression in E. coli” value is given as “soluble”. For the sequence “MAHHHHHHMRRSVIRTRKEFLERKQHERVHEAIHARKEQFRSAVETATPLPGHLKKDALALKKFTELDDAQTRNLTTTVDDEYANAGQEDPHVLVTTSRNASQKLLEFAKEVRLIVPNAVRMNRGNLSVHQLMDAARKENYTDVLVLQESQGVPDSLIVSHLPLGPTVTFTIHNLVARHDIDGVGTMSEQYPHLVFENFSTKLGIRIKDVLRYLFPVPKADASRVLTFDNENDFISFRHHTFKKEKGKKQVELTEVGPRFELTPYRIVLGTLEMDDAETEWVLQPYMNTAKKRRLL”, the “soluble on expression in E. coli” value is recorded as “soluble”. Turning to “LPQSVSRAAITAAYRRPETEAVSMLLEQARLPQPVAEQAHKLAYQLADKLRNQKNASGRAGMVQGLLQEFSLSSQEGVALMCLAEALLRIPDKATRDALIRDKISNGNWQSHIGRSPSLFVNAATWGLLFTGKLVSTHNEASLSRSLNRIIGKSGEPLIRKGVDMAMRLMGEQFVTGETIAEALANARKLEEKGFRYSYDMLGEAALTAADAQAYMVSYQQAIHAIGKASNGRGIYEGPGISIKLSALHPRYSRAQYDRVMEELYPRLKSLTLLARQYDIGINIDAEESDRLEISLDLLEKLCFEPELAGWNGIGFVIQAYQKRCPLVIDYLIDLATRSRRRLMIRLVKGAYWDSEIKRAQMDGLEGYPVYTRKVYTDVSYLACAKKLLAVPNLIYPQFATHNAHTLAAIYQLAGQNYYPGQYEFQCLHGMGEPLYEQVTGKVADGKLNRPCRIYAPVGTHETLLAYLVRRLLENGANTSFVNRIADTSLPLDELVADPVTAVEKLAQQEGQTGLPHPKIPLPRDLYGHGRDNSAGLDLANEHRLASLSSALLNSALQKWQALPMLEQPVAAGEMSPVINPAEPSSSVDKLAAALEHHHHHH”, the “soluble on expression in E. coli” value was “soluble”.
